Measurements as given in US20240083986A1.

Molecular target: Hazel (Cor A 1, MyBiosource, Cat #MBS5304600) (Hazel) (UniProt Q08407)
Test: SPR, mAb captured via anti-hFc, 25 C

100 nM Analyte Bound (RU)	Binder
0	H4H16991P (antibody, human IgG4, V domains shown) VH: QVQLVQSGAEVRKPGASVKVSCKASGYTFTGYYLHWVRQAPGQGLEWMGLINPNTGGTNFAQKFQGRVTMTRDSSISAAYMELSRLRSDDTAVYYCARQHWNRYFDNWGQGTLVTVSS VL: DIQMTQSPSTLSASVGDRVTITCRASQSVGNWLAWYQQKPGKAPKLLIQEASSIESGVPSRFSGSGSGTEFTLIVSSLQPDDFATYYCQQYNSYSWTFGHGTKVEIK
0	H4H17028P (antibody, human IgG4, V domains shown) VH: QVQLVESGGGVVQPGRSLRLSCAASGFTFSRYAIHWVRQAPGKGLEWVAVISYDGDDKYYGDSVKGRFTISRDNSKTMVYLHMNSLRTEDTAVYYCAKDGYSLYGKDYFDYWGQGTLVTVSS VL: EIVLTQSPGTLPLSPGERATLSCRASQSITNSYLAWYQQKPDQAPRLLIYGASSRATGIPDRFSGSESGTDFTLTISRLEPEDFAVYYCQQYVRSPWTFGQGTKVEIK
0	H4H16960P (antibody, human IgG4, V domains shown) VH: QLQLQESGPGLVRPSETLSLTCTVSGGSISSSNYWWGWIRQPPGKGLEWIGSIYYSGITYYNPSLKSRVTISADTSKDQFSLKLRSVTAADTAVYYCAKLEWLRLDFWGQGTTVTVSS VL: DIQMTQSPSSVSASVGDRVTITCRASQGISSWLVWYQQKPGKVPKLLIYAASSLQSGVPLRFSGSGSGTDFTLTISSLQPEDFATYYCQQAKSFPLTFGQGTRLEIK
-1	H4H16946P (antibody, human IgG4, V domains shown) VH: EVQLVESGGGLVQPGGSLRLSCVASGFTFSNYDMNWVRQAPGEGLEWISYISYSDHNIYYIDSVKGRFTISRDNAKNSLYLQMNSLRAEDTAIYYCAREALASSSFDYWGQGTLVTVSS VL: EIVMTQSPATLSVSPGERVTLSCRASQSVSGNLAWYQQKPGQAPRLLIYSASTGATGVPARFSGSGSGTEFTLTISSLQSEDFALYYCQQYNKWPRTIGQGTKVEIK
0	H4H17001P (antibody, human IgG4, V domains shown) VH: QVQLVESGGGLVKPGGSLRLSCAASGFTFSDYYMNWIRQAPGKGLEWISLISSSGSAIYYSDSVKGRFTISRDNARKSLYLQVNSLRAEDTAVYYCARDRGEWALGAYYYGLDVWGQGTTVTVSS VL: DIVMTQSPLSLPVTPGEPASISCRSSQSLLHSDGYNYLDWYLQKSGQSPQLLIYLGSNRASGVPDRFSGSGSGTDFTLKISRMEAEDVGVYYCMQALQTPYTFGQGTKLEIK
1	H4H17015P (antibody, human IgG4, V domains shown) VH: QVQLQESGPGLVKPSQTLSLTCTVSGGSISSADHYWSWIRQQPGKGLEWIGYISYRGTTYYNPTLESRVSISVDTFKNQFSLMLHSVTVADTAVYYCAKVLQGLVRFRDYGFDVWGQGTTVTVSS VL: DIQLTQSPPFLSASVGDRVTITCWASQDISSYLAWYQQNPGKSPKLLIYDAFTLHTGVPSRFSGSGSGTEFTLTISSLQPEDFATFYCQHLYSFPFTFGPGTKVDIK
0	H4H17033P (antibody, human IgG4, V domains shown) VH: QVQLVQSGAEVKKPGASVKVSCKASGYTFAAHYMHWVRQAPGQGLEWMGWINTYTGGTNYGQKFQGRVTMTRDTSITTAYMELSRLRSDDTAVYYCARDRRNWNFVFEYWGQGTLVTVSS VL: DIQMTQSPSSLSASVGDRVTISCRASQNIKNYLNWYQQKPGKAPKLLIYEASNLQSGAPSRFSGSGSGTDFTLTISSLEPEDFATYYCQQSFSIPWTFGQGTKVEIK
0	H4H16950P (antibody, human IgG4, V domains shown) VH: QVQLVQSGAEVKKPGASVKVSCKTSGYTFTNYGITWVRQAPGQGLEWMGWISAYNGNTNYAQNVQGRVTMTTDTSTSTAYMEVRSLRSDDTAVYYCARRSSMLHFQHWGQGTLVTVSS VL: DIVMTQSPDSLAVSLGERATINCKSSQHVLYDSSNENYLAWFQQKPGQPPKLLIYWASTRESGVPDRFSGSGSGTDFTLTISSLQAEDVAVYYCQQYSSAPYTFGQGTKLEIK
0	H4H17031P (antibody, human IgG4, V domains shown) VH: QVQLQQWGAGLLKPSETLSLTCVVYGESFGNYHWNWIRQSPGKRLEWIGEINQNGHTNYNPSLKSRVTISVDTSKIQFSLRLNSVTAADTAVYFCARGHNYVNSYFGLDVWGQGTTVTVSS VL: EIVMTQSPATLSVSPGERATLSCRTSQSVSISLAWYQRKPGQAPRLLIFGSSTRATGVPARFSGSGSGTEFTLTISSLQSEDFAVYYCQQYNNWPYTFGQGTKLEIK
0	H4H16987P (antibody, human IgG4 S228P, kappa, V domains shown) VH: EVQLVESGGGLVQPGGSLRLSCAASGFTVSSNSMSWVRQAPGEGLEWVSVIFSGGITYYSDSVKGRFTISRHNSKNTLYLQMNSLRTEDTAVYYCARHSNWNFDAFDIWGQGTMVTVSS VL: DIQMTQSPSSLSASVGDRVTITCRASQSFDTYLNWYQQKPGKAPNLLIYATSSLQSGVPSRFSGSGSGTDFTLTISSLQPEDFGTYYCQQSYSIPYTFGQGTKLEIKR
0	H4H17027P (antibody, human IgG4, V domains shown) VH: EVQLVESGGGLVQPGGSLRLSCAASGFTFRNYAMHWVRQAPGEGLEWVAAIYRNSDSIDYADSVKGRFTISRDNAKNSLYLQMNSLKTEDTALYYCAKDEGFLEYFDSWGQGTLVTVSS VL: EIVLTQSPGTLSLSPGERASLSCRASQSVSSSFLAWYQQKPGQAPRLLIYGVSSRFIGIPDRFSGGGSGTDFTLTITRLEPEDFAVYYCQQYGRSPWTFGQGTKVEIK
